Laboratory results: patent US5276170A, “Azido-substituted aromatic amino acids” (The United States of America as represented by the …, priority 1992, dated 1994)

Substrate: [N-]=[N+]=Nc1cc(O)ccc1C[C@H](N)C(=O)O
Assay: Tyrosine phenol-lyase catalyzed hydrolytic cleavage to ammonium pyruvate and 3-azidophenol
Type: biochemical
Settings: other: as substrate

B1: tyrosine phenol-lyase (Citrobacter freundii) (protein)
chain: MNYPAEPFRIKSVETVSMIPRDERLKKMQEAGYNTFLLNSKDIYIDLLTDSGTNAMSDKQWAGMMMGDEAYAGSENFYHLERTVQELFGFKHIVPTHQGRGAENLLSQLAIKPGQYVAGNMYFTTTRYHQEKNGAVFVDIVRDEAHDAGLNIAFKGDIDLKKLQKLIDEKGAENIAYICLAVTVNLAGGQPVSMANMRAVRELTEAHGIKVFYDATRCVENAYFIKEQEQGFENKSIAEIVHEMFSYADGCTMSGKKDCLVNIGGFLCMNDDEMFSSAKELVVVYEGMPSYGGLAGRDMEAMAIGLREAMQYEYIEHRVKQVRYLGDKLKAAGVPIVEPVGGHAVFLDARRFCEHLTQDEFPAQSLAASIYVETGVRSMERGIISAGRNNVTGEHHRPKLETVRLTIPRRVYTYAHMDVVADGIIKLYQHKEDIRGLKFIYEPKQLRFFTARFDYI
- Km: 1000 µM
